Data taken from patent publication US20190119366A1 (ADC THERAPEUTICS, published 2019).

T1: recombinant human KAAG1 (Kidney associated antigen 1) (human, UniProt Q9UBP8 1-84)
T1 construct: also called KAAG1 protein
T1 sequence: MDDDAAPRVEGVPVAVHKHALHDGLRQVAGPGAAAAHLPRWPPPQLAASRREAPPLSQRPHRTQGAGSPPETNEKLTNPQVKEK

T2: KAAG1 on the surface of cancer cells (human, UniProt Q9UBP8 1-84)
T2 construct: Endogenous KAAG1 of human cancer cell lines and of tumor tissue sections; also called KAAG1 antigen
T2 sequence: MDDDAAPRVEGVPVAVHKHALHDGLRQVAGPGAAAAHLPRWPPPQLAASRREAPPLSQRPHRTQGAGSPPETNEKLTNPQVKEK


Columns and labels:
[1] = molecular target: T1, recombinant human KAAG1 (Kidney …); test: SPR (ProteOn XPR36), antibody captured on anti-human IgG Fc, KAAG1 as analyte
Protocol: (§1) Immediately after the activation, a 13 μg/mL solution of anti-human IgG Fc fragment specific in 10 mM NaOAc pH 4.5 was injected in the analyte direction at a flow rate of 25 μL/min until approximately 8000 resonance units (RUs) were immobilized. Remaining active groups were quenched by a 300 s injection of 1M ethanolamine at 30 μL/min in the analyte direction, and this also ensures mock-activated interspots are created for blank referencing. The screening of the 3A4 variants for binding to KAAG1 occurred in two steps: an indirect capture of 3A4 variants from cell supernatant onto the anti-human IgG Fc fragment specific surface in the ligand direction(vertical) followed by a KAAG1 injection in the analyte direction. Firstly, one buffer injection for 30 s at 100 uL/min in the ligand direction was used to stabilize the baseline. […] Four to five 3A4 variants along with wild-type 3A4 were simultaneously injected in individual ligand channels for 240 s at flow 25 μL/min. […] The first ligand channel was left empty to use as a blank control if required. This 3A4 capture step was immediately followed by two buffer injections in the analyte direction to stabilize the baseline, and then the gel filtration purified KAAG1 was injected. For a typical screen, five KAAG1 concentrations (8, 2.66, 0.89, 0.29, and 0.098 nM) and buffer control were simultaneously injected in individual analyte channels at 50 μL/min for 120 s with a 600s dissociation phase, resulting in a set of binding sensorgrams with a buffer reference for each of the captured 3A4 variants. The anti-human IgG Fc fragment specific—3A4 complexes were regenerated by a 18 s pulse of 0.85% phosphoric acid for 18 s at 100 μL/min to prepare the anti-human IgG Fc fragment specific surface for the next injection cycle. Sensorgrams were aligned and double-referenced using the buffer blank injection and interspots, and the resulting sensorgrams were analyzed using ProteOn Manager software v3.0.

[2] = molecular target: T1, recombinant human KAAG1 (Kidney …); test: SPR (BioRad ProteOn XPR36); fold difference of KD relative to LcHc
Protocol: as §1

[3] = molecular target: T1, recombinant human KAAG1 (Kidney …); test: SPR (BioRad ProteOn XPR36): antibody captured on an anti-human IgG Fc surface, KAAG1 injected as analyte, 1:1 Langmuir fit
Protocol: as §1

[4] = molecular target: T2, KAAG1 on the surface of cancer cells; test: flow cytometry, MDA-231 cells
[5] = molecular target: T1, recombinant human KAAG1 (Kidney …); test: epitope mapping studies (method not described)

Binder	Kd [1] [nM]	fold difference in binding affinity between the worse variant (H1 L1) and the best variant (H4L2) [1] [fold]	Fold diff. [2]	Kd [3] [nM]	koff [3] [s⁻¹]	kon [3] [M⁻¹ s⁻¹]	fold weaker affinity than the murine (LcHc) [1] [fold]	binding result [4]	binding result [5]
humanized 3A4 antibody Lh1Hh1 (antibody, human IgG1, kappa, V domains shown, Human IgG1/kappa; 100% humanized frameworks; also called H1 L1; H1L1) VH: QVQLVQSGAEVKKPGASVKVSCKASGYTFTDDYMSWVRQAPGQGLEWMGDINPYNGDTNYNQKFKGRVTITADTSTSTAYMELSSLRSEDTAVYYCARDPGAMDYWGQGTLVTVSS VL: DIVMTQTPLSLPVTPGEPASISCRSSQSLLHSNGNTYLEWYLQKPGQSPQLLIYTVSNRFSGVPDRFSGSGSGTDFTLKISRVEAEDVGVYYCFQGSHVPLTFGQGTKLEIKR	0.47	4	29.6	0.474	0.00328	6.93e+06			
humanized 3A4 antibody Lh2Hh1 (antibody, human IgG1, kappa, V domains shown, Human IgG1/kappa) VH: QVQLVQSGAEVKKPGASVKVSCKASGYTFTDDYMSWVRQAPGQGLEWMGDINPYNGDTNYNQKFKGRVTITADTSTSTAYMELSSLRSEDTAVYYCARDPGAMDYWGQGTLVTVSS VL: DVVMTQTPLSLPVTPGEPASISCRSSQSLLHSNGNTYLEWYLQKPGQSPKLLIYTVSNRFSGVPDRFSGSGSGTDFTLKISRVEAEDVGVYYCFQGSHVPLTFGQGTKLEIKR			21.3	0.341	0.00237	6.97e+06			
humanized 3A4 antibody Lh1Hh4 (antibody, human IgG1, kappa, V domains shown, Human IgG1/kappa) VH: QIQLVQSGAEVKKPGASVKVSCKASGYTFTDDYMSWVKQAPGQGLEWIGDINPYNGDTNYNQKFKGKATLTVDKSTSTAYMELSSLRSEDTAVYYCARDPGAMDYWGQGTLVTVSS VL: DIVMTQTPLSLPVTPGEPASISCRSSQSLLHSNGNTYLEWYLQKPGQSPQLLIYTVSNRFSGVPDRFSGSGSGTDFTLKISRVEAEDVGVYYCFQGSHVPLTFGQGTKLEIKR			9.3	0.149	0.000764	5.14e+06			
humanized 3A4 antibody Lh2Hh4 (antibody, human IgG1, kappa, V domains shown, Human IgG1/kappa; 10 mouse framework residues retained; also called H4L2) VH: QIQLVQSGAEVKKPGASVKVSCKASGYTFTDDYMSWVKQAPGQGLEWIGDINPYNGDTNYNQKFKGKATLTVDKSTSTAYMELSSLRSEDTAVYYCARDPGAMDYWGQGTLVTVSS VL: DVVMTQTPLSLPVTPGEPASISCRSSQSLLHSNGNTYLEWYLQKPGQSPKLLIYTVSNRFSGVPDRFSGSGSGTDFTLKISRVEAEDVGVYYCFQGSHVPLTFGQGTKLEIKR	0.1		6.4	0.103	0.00047	4.57e+06	~6		
humanized 3A4 antibody Lh2Hh3 (antibody, human IgG1, kappa, V domains shown, Human IgG1/kappa) VH: QIQLVQSGAEVKKPGASVKVSCKASGYTFTDDYMSWVRQAPGQGLEWIGDINPYNGDTNYNQKFKGRATLTVDKSTSTAYMELSSLRSEDTAVYYCARDPGAMDYWGQGTLVTVSS VL: DVVMTQTPLSLPVTPGEPASISCRSSQSLLHSNGNTYLEWYLQKPGQSPKLLIYTVSNRFSGVPDRFSGSGSGTDFTLKISRVEAEDVGVYYCFQGSHVPLTFGQGTKLEIKR			14.3	0.228	0.00102	4.46e+06			
humanized 3A4 antibody Lh2Hh2 (antibody, human IgG1, kappa, V domains shown, Human IgG1/kappa) VH: QIQLVQSGAEVKKPGASVKVSCKASGYTFTDDYMSWVRQAPGQGLEWMGDINPYNGDTNYNQKFKGRVTITADKSTSTAYMELSSLRSEDTAVYYCARDPGAMDYWGQGTLVTVSS VL: DVVMTQTPLSLPVTPGEPASISCRSSQSLLHSNGNTYLEWYLQKPGQSPKLLIYTVSNRFSGVPDRFSGSGSGTDFTLKISRVEAEDVGVYYCFQGSHVPLTFGQGTKLEIKR			15.3	0.245	0.00181	7.4e+06			
humanized 3A4 antibody Lh1Hh3 (antibody, human IgG1, kappa, V domains shown, Human IgG1/kappa) VH: QIQLVQSGAEVKKPGASVKVSCKASGYTFTDDYMSWVRQAPGQGLEWIGDINPYNGDTNYNQKFKGRATLTVDKSTSTAYMELSSLRSEDTAVYYCARDPGAMDYWGQGTLVTVSS VL: DIVMTQTPLSLPVTPGEPASISCRSSQSLLHSNGNTYLEWYLQKPGQSPQLLIYTVSNRFSGVPDRFSGSGSGTDFTLKISRVEAEDVGVYYCFQGSHVPLTFGQGTKLEIKR			9.3	0.149	0.00096	6.46e+06			
3A4-ADC1 (chimeric 3A4 conjugated to a cytotoxic drug via a cleavable peptide linker) (antibody, human IgG1, kappa, V domains shown, cytotoxic drug conjugated via a highly stable peptide linker that is selectively cleaved by lysosomal enzymes; chain and residues of attachment not stated) VH: QIQLVQSGPEMVKPGASVKMSCKASGYTFTDDYMSWVKQSHGKSLEWIGDINPYNGDTNYNQKFKGKAILTVDKSSSTAYMQLNSLTSEDSAVYYCARDPGAMDYWGQGTSVTVSS VL: DVVMTQTPLSLAVSLGDQASISCRSSQSLLHSNGNTYLEWYLQKPGQSPKLLIHTVSNRFSGVPDRFSGSGSGTDFTLKISRVEAEDLGVYYCFQGSHVPLTFGAGTRLELKR								binds	
3A4-ADC2 (chimeric 3A4 conjugated to an anti-mitotic drug via a non-cleavable linker) (antibody, human IgG1, kappa, V domains shown, anti-mitotic drug conjugated via a non-cleavable linker; chain and residues of attachment not stated) VH: QIQLVQSGPEMVKPGASVKMSCKASGYTFTDDYMSWVKQSHGKSLEWIGDINPYNGDTNYNQKFKGKAILTVDKSSSTAYMQLNSLTSEDSAVYYCARDPGAMDYWGQGTSVTVSS VL: DVVMTQTPLSLAVSLGDQASISCRSSQSLLHSNGNTYLEWYLQKPGQSPKLLIHTVSNRFSGVPDRFSGSGSGTDFTLKISRVEAEDLGVYYCFQGSHVPLTFGAGTRLELKR								binds	
3G10 anti-KAAG1 antibody (antibody, V domains shown) VH: EIQLQQSGPELVKPGASVKISCKASGYTFTDNYMNWVKQSHGKSLEWIGDINPYYGTTTYNQKFKGKATLTVDKSSRTAYMELRGLTSEDSAVYYCARDDWFDYWGQGTLVTVSA VL: DVLMTQTPRSLSVSLGDQASISCRSSQSLLHSNGNTYLEWYLQKPGQPPKVLIYKVSNRFSGVPDRFSGSGSGTDFTLKISGVEAEDLGVYYCFQGSHVPLTFGAGTKLELK									binds
